Laboratory results reported in patent US20160333418A1 (SANTA MARIA BIOTHERAPEUTICS, published 2016).

Columns and labels:
activin A [1] = biological target: T1, activin A (human, UniProt P08476 311-426); test: cell-based or functional assay
T1 sequence: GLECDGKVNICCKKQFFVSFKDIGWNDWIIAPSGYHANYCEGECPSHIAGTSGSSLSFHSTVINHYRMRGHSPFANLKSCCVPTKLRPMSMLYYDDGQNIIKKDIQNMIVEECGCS

myostatin [2] = biological target: T2, myostatin (human, UniProt O14793 267-375); test: cell-based or functional assay
T2 sequence: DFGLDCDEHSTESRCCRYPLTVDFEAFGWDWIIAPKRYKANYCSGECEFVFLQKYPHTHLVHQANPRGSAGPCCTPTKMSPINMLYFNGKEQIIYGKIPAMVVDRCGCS

[3] = biological target: GDF-11 (Homo sapiens (Human)) (UniProt O95390); test: KinExA solution equilibrium binding, ligand-coated beads, room temperature
[4] = biological target: GDF-11 (Homo sapiens (Human)) (UniProt O95390); test: cell-based or functional assay
activin A [5] = biological target: T1, activin A; test: KinExA solution equilibrium binding, ligand-coated beads, room temperature
Procedure: (§1) Solution-based equilibrium-binding assays using KinExA™ technology (Sapidyne Instruments, Inc.) were used to determine the dissociation equilibrium (KD) of ligand binding to ActRIIB-Fc polypeptides. UltraLink Biosupport beads (Pierce) was pre-coated with about 100 μg/m1 each of myostatin, GDF-11, and activin A overnight, and then blocked with BSA. 1 pM and 3 pM of ActRIIB-Fc (E28W) (SEQ ID NO: 21) and svActRIIB-Fc (E28W, S44T) (SEQ ID NO: 10) samples were incubated with various concentrations (0.7 fM to 160 pM) of myostatin, activin A, and GDF-11 respectively in sample buffer at room temperature for 8 hours before being run through the ligand-coated beads. The amount of the bead-bound soluble receptor was quantified by fluorescent (Cy5) labeled goat anti-human-Fc antibody at 1 mg/ml in superblock. The binding signal is proportional to the concentration of free soluble receptor at equilibrium with a given myostatin, activin A, or GDF-11 concentration. KD was obtained from the nonlinear regression of the competition curves using a dual-curve one-site homogeneous binding model provided in the KinEx A™ software (Sapidyne Instruments, Inc.).

myostatin [6] = biological target: T2, myostatin; test: as above
Procedure: as §1

B1: ActRIIB-Fc (E28W) (Fc fusion)
chain: ETRWCIYYNANWELERTNQSGLERCEGEQDKRLHCYASWRNSSGTIELVKKGCWLDDFNCYDRQECVATEENPQVYFCCCEGNFCNERFTHLPEAGGPEVTYEPPPTAPTGGGGSVECPPCPAPPVAGPSVFLFPPKPKDTLMISRTPEVTCVVVDVSHEDPEVQFNWYVDGVEVHNAKTKPREEQFNSTFRVVSVLTVVHQDWLNGKEYKCKVSNKGLPAPIEKTISKTKGQPREPQVYTLPPSREEMTKNQVSLTCLVKGFYPSDIAVEWESNGQPENNYKTTPPMLDSDGSFFLYSKLTVDKSRWQQGNVFSCSVMHEALHNHYTQKSLSLSPGK
notes: also called ActRIIB-IgG2Fc (E28W); ActRIIB-IgG Fc (E28W)
- IC50, luciferase activity in C2C12/pMARE reporter cells, 4 nM ligand (activin A [1]): 3.2 nM
- IC50, luciferase activity in C2C12/pMARE reporter cells, 4 nM ligand (myostatin [2]): 0.95 nM
- Kd [3]: 0.1 pM
- IC50, luciferase activity in C2C12/pMARE reporter cells, 4 nM ligand [4]: 2.4 nM
- Kd (activin A [5]): 0.2 pM
- Kd (myostatin [6]): 0.1 pM

B2: svActRIIB-Fc (E28W, S44T) (Fc fusion)
chain: ETRWCIYYNANWELERTNQTGLERCEGEQDKRLHCYASWRNSSGTIELVKKGCWLDDFNCYDRQECVATEENPQVYFCCCEGNFCNERFTHLPEAGGPEVTYEPPPTAPTGGGGSVECPPCPAPPVAGPSVFLFPPKPKDTLMISRTPEVTCVVVDVSHEDPEVQFNWYVDGVEVHNAKTKPREEQFNSTFRVVSVLTVVHQDWLNGKEYKCKVSNKGLPAPIEKTISKTKGQPREPQVYTLPPSREEMTKNQVSLTCLVKGFYPSDIAVEWESNGQPENNYKTTPPMLDSDGSFFLYSKLTVDKSRWQQGNVFSCSVMHEALHNHYTQKSLSLSPGK
notes: also called svActRIIB-IgG2Fc (E28W, S44T); svActRIIB-IgG Fc (E28W, S44T)
- IC50, luciferase activity in C2C12/pMARE reporter cells, 4 nM ligand (activin A [1]): 3.6 nM
- IC50, luciferase activity in C2C12/pMARE reporter cells, 4 nM ligand (myostatin [2]): 1.07 nM
- Kd [3]: 0.1 pM
- IC50, luciferase activity in C2C12/pMARE reporter cells, 4 nM ligand [4]: 2.4 nM
- Kd (activin A [5]): 0.1 pM
- Kd (myostatin [6]): 0.1 pM
